{"source": "paper PMC7021487", "target": "GFP Pavarotti co-expressed with exogenous Trc (greater pool phosphorylated at S745) (D. melanogaster)", "experiment": "co-IP; GFP Pavarotti (WT, S745A, or WT with co-expressed Trc) over-expressed in HEK 293 FT cells; lysate in coIP buffer (50 mM Tris pH 7.5, 150 mM NaCl, 1.5% Triton X-100, 1 mM EDTA, 1 mM NaVO3); precipitated with GFP-Trap-M (single chain anti-GFP) beads, washed 3x; blot for endogenous 14-3-3"}
{"substance": "endogenous 14-3-3 ξ (HEK 293 FT cells) (from UniProt P63104 1-245) (natural protein)", "values": [{"measurement": "increase of the co-precipitated interaction against GFP Pavarotti without Trc", "result": 60, "unit": "%"}]}
